Laboratory results published in publication PMC3459908 (2012).
Each block holds one molecule with its values, some of them ahead of it.

Tests used:
BMP2 (Homo sapiens) = BMP2 (Homo sapiens) (UniProt P12643); experiment: SPR; settings: cited from earlier work
BMP9 = target: T1, BMP9 (Homo sapiens (Human),Homo sapiens …, UniProt Q9UK05,Q9UK05); experiment: SPR kinetic 1:1, BMP immobilised, full soluble RGM analyte
T1 chain 1: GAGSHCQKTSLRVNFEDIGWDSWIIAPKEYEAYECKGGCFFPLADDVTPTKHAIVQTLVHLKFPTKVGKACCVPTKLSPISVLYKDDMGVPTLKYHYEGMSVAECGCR
T1 chain 2: T1 chain 1

BMP7 [1] = target: T2, BMP7 (Homo sapiens (Human),Homo sapiens …, UniProt P18075,P18075); experiment: as above
T2 chain 1: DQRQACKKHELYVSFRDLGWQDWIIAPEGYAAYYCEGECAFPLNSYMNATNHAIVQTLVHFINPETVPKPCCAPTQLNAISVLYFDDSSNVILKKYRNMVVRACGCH
T2 chain 2: T2 chain 1

BMP4 [2] = target: T3, BMP4 (Homo sapiens (Human),Homo sapiens …, UniProt P12644,P12644); experiment: as above
T3 chain 1: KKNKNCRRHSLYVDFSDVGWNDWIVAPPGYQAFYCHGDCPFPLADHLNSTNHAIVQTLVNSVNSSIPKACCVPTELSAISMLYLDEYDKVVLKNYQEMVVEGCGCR
T3 chain 2: T3 chain 1

BMP5 [3] = target: T4, BMP5 (Homo sapiens (Human),Homo sapiens …, UniProt P22003,P22003); experiment: as above
T4 chain 1: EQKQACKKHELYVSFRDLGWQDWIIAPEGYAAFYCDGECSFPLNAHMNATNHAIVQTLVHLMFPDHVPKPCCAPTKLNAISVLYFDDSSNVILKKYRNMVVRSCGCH
T4 chain 2: T4 chain 1

BMP2 [4] = target: T5, BMP2 (Homo sapiens (Human),Homo sapiens …, UniProt P12643,P12643); experiment: as above
T5 chain 1: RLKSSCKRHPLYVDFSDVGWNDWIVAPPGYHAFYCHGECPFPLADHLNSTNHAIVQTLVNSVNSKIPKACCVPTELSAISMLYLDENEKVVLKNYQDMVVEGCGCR
T5 chain 2: T5 chain 1

BMP6 [5] = target: T6, BMP6 (Homo sapiens (Human),Homo sapiens …, UniProt P22004,P22004); experiment: as above
T6 chain 1: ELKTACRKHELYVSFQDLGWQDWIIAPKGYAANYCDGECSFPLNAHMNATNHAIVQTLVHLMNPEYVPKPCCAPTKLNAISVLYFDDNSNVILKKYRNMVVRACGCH
T6 chain 2: T6 chain 1

BMP5 [6] = target: T7, BMP5 (Homo sapiens, UniProt P22003); experiment: SPR
T7 chain: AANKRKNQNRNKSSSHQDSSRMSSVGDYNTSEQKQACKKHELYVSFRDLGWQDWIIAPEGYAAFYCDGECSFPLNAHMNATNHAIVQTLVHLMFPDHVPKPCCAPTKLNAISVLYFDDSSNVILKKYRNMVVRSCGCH

BMP4 [7] = target: T8, BMP4 (Homo sapiens, UniProt P12644); experiment: SPR
T8 chain: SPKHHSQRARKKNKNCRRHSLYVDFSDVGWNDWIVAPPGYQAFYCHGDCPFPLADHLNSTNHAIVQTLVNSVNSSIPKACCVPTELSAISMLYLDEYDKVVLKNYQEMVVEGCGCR

BMP6 [8] = target: T9, BMP6 (Homo sapiens, UniProt P22004); experiment: SPR
T9 chain: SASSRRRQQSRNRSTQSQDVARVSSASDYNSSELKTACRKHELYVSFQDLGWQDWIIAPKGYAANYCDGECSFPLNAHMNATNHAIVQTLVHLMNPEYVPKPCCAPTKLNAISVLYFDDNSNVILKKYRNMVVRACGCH

BMP7 [9] = target: T10, BMP7 (Homo sapiens, UniProt P18075); experiment: SPR
T10 chain: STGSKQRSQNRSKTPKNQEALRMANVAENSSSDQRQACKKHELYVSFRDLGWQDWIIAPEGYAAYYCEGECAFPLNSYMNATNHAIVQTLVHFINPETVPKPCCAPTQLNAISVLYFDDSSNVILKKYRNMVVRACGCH

BMP2 [10] = target: T11, BMP2 (Homo sapiens, UniProt P12643); experiment: SPR
T11 chain: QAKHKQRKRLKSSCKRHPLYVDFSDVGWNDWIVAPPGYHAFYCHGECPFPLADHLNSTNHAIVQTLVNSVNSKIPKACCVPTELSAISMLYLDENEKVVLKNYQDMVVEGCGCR

Molecule: HJV (from UniProt Q6ZVN8)
Kd (BMP2 (Homo sapiens)): 140 nM

Kd (BMP9): > 30 nM | Kd (BMP7 [1]): 166 nM | Kd (BMP4 [2]): 2.6 nM | Kd (BMP5 [3]): 33 nM | Kd (BMP2 [4]): 5.5 nM
B1: RGMB (protein)
chain: QCRIQKCTTDFVSLTSHLNSAVDGFDSEFCKALRAYAGCTQRTSKACRGNLVYHSAVLGISDLMSQRNCSKDGPTSSTNP

Kd (BMP9): > 100 nM
B2: RGMA (protein)
chain: PCKILKCNSEFWSATSGSHAPASDDTPEFCAALRSYALCTRRTARTCRGDLAYHSAVHGIEDLMSQHNCSKDGPTSQPRL

Kd (BMP9): > 200 nM | Kd (BMP7 [1]): 20 nM | Kd (BMP4 [2]): 4.5 nM | Kd (BMP6 [5]): 8.1 nM | Kd (BMP5 [3]): 17 nM | Kd (BMP2 [4]): 9.4 nM
B3: RGMC (protein)
chain: QCKILRCNAEYVSSTLSLRGGGSSGALRGGGGGGRGGGVGSGGLCRALRSYALCTRRTARTCRGDLAFHSAVHGIEDLMIQHNCSRQGPTAPPPP

Kd (BMP5 [6]): 17 nM | Kd (BMP4 [7]): 4.5 nM | Kd (BMP6 [8]): 8.1 nM | Kd (BMP7 [9]): 20 nM | Kd (BMP2 [10]): 9.4 nM
B4: HJV (protein)
chain: QCKILRCNAEYVSSTLSLRGGGSSGALRGGGGGGRGGGVGSGGLCRALRSYALCTRRTARTCRGDLAFHSAVHGIEDLMIQHNCSRQGPTAPPPPRGPALPGAGSGLPAPDPCDYEGRFSRLHGRPPGFLHCASFGDPHVRSFHHHFHTCRVQGAWPLLDNDFLFVQATSSPMALGANATATRKLTIIFKNMQECIDQKVYQAEVDNLPVAFEDGSINGGDRPGGSSLSIQTANPGNHVEIQAAYIGTTIIIRQTAGQLSFSIKVAEDVAMAFSAEQDLQLCVGGCPPSQRLSRSERNRRGAITIDTARRLCKEGLPVEDAYFHSCVFDVLISGDPNFTVAAQAALEDARAFLPDLEKLHLFPSD

Kd (BMP6 [8]): 28 nM
B5: RGMB (protein)
chain: GDCQQPAQCRIQKCTTDFVSLTSHLNSAVDGFDSEFCKALRAYAGCTQRTSKACRGNLVYHSAVLGISDLMSQRNCSKDGPTSSTNPEVTHDPCNYHSHAGAREHRRGDQNPPSYLFCGLFGDPHLRTFKDNFQTCKVEGAWPLIDNNYLSVQVTNVPVVPGSSATATNKITIIFKAHHECTDQKVYQAVTDDLPAAFVDGTTSGGDSDAKSLRIVERESGHYVEMHARYIGTTVFVRQVGRYLTLAIRMPEDLAMSYEESQDLQLCVNGCPLSERIDDGQGQVSAILGHSLPRTSLVQAWPGYTLETANTQCHEKMPVKDIYFQSCVFDLLTTGDANFTAAAHSALEDVEALHPRKERWHIFPSSGN

Kd (BMP5 [6]): 83 nM | Kd (BMP4 [7]): 14 nM | Kd (BMP6 [8]): 55 nM | Kd (BMP7 [9]): 63 nM | Kd (BMP2 [10]): 22 nM
B6: RGMA (protein)
chain: PHLRTFTDRFQTCKVQGAWPLIDNNYLNVQVTNTPVLPGSAATATSKLTIIFKNFQECVDQKVYQAEMDELPAAFVDGSKNGGDKHGANSLKITEKVSGQHVEIQAKYIGTTIVVRQVGRYLTFAVRMPEEVVNAVEDWDSQGLYLCLRGCPLNQQIDFQAFHTNAEGTGARRLAAASPAPTAPETFPYETAVAKCKEKLPVEDLYYQACVFDLLTTGDVNFTLAAYYALEDVKMLHSNKDKLHLYERTRDLPGRA
